# According to patent US20220235136A1 (YALE UNIVERSITY, published 2022):
# T1: human CD93 on cells (CD93-transfected HEK293T cells; endogenous on HUVEC cells) (human, UniProt Q9NPY3 22-652)
# T1 construct: in the co-immunoprecipitation it comes from HUVEC lysate; also called CD93 transfectant; CD93+ 293 cells
# T1 sequence: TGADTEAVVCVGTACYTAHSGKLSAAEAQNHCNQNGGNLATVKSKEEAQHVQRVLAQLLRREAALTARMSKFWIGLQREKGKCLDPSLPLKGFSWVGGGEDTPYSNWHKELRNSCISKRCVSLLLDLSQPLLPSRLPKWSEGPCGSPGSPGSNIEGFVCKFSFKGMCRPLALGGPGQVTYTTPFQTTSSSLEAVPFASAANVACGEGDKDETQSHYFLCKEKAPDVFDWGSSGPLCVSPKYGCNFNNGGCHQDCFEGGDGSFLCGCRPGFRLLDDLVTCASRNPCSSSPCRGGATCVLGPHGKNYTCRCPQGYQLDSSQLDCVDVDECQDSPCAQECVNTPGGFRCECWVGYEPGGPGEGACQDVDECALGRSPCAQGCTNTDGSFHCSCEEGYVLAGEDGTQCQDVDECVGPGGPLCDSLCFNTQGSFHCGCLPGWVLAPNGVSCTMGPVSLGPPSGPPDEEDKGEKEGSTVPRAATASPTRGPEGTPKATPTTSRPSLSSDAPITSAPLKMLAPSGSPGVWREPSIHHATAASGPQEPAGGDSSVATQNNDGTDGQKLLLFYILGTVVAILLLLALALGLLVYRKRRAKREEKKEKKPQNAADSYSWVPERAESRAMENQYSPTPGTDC
# Molecular target: T1, human CD93 on cells (CD93-transfected …)
# Test: flow cytometry, HEK293T supernatant of the Fc-tagged protein on CD93 transfectant; binding index = MFI of CD93 transfectant / MFI of control cells
row,binding result,Binder
1,no binding,"WISP1 (Fc fusion, human, UniProt O95388 23-367, looked up, member of the group m19; HEK293T supernatant) fusion chain: TALSPAPTTMDFTPAPLEDTSSRPQFCKWPCECPPSPPRCPLGVSLITDGCECCKMCAQQLGDNCTEAAICDPHRGLYCDYSGDRPRYAIGVCAQVVGVGCVLDGVRYNNGQSFQPNCKYNCTCIDGAVGCTPLCLRVRPPRLWCPHPRRVSIPGHCCEQWVCEDDAKRPRKTAPRDTGAFDAVGEVEAWHRNCIAYTSPWSPCSTSCGLGVSTRISNVNAQCWPEQESRLCNLRPCDVDIHTLIKAGKKCLAVYQPEASMNFTLAGCISTRSYQPKYCGVCMDNRCCIPYKSKTIDVSFQCPDGLGFSRQVLWINACFCNLSCRNPNDIFADLESYPDFSEIAN"
2,no binding,"ESM1 (Fc fusion, human, UniProt Q9NQ30 20-184, looked up, member of the group m19; HEK293T supernatant) fusion chain: WSNNYAVDCPQHCDSSECKSSPRCKRTVLDDCGCCRVCAAGRGETCYRTVSGMDGMKCGPGLRCQPSNGEDPFGEEFGICKDCPYGTFGMDCRETCNCQSGICDRGTGKCLKFPFFQYSVTKSSNRFVSLTEHDMASGDGNIVREEVVKENAAGSPVMRKWLNPR"
3,no binding,"WISP3 (Fc fusion, human, UniProt O95389 24-354, looked up, member of the group m19; HEK293T supernatant) fusion chain: TGPLDTTPEGRPGEVSDAPQRKQFCHWPCKCPQQKPRCPPGVSLVRDGCGCCKICAKQPGEICNEADLCDPHKGLYCDYSVDRPRYETGVCAYLVAVGCEFNQVHYHNGQVFQPNPLFSCLCVSGAIGCTPLFIPKLAGSHCSGAKGGKKSDQSNCSLEPLLQQLSTSYKTMPAYRNLPLIWKKKCLVQATKWTPCSRTCGMGISNRVTNENSNCEMRKEKRLCYIQPCDSNILKTIKIPKGKTCQPTFQLSKAEKFVFSGCSSTQSYKPTFCGICLDKRCCIPNKSKMITIQFDCPNEGSFKWKMLWITSCVCQRNCREPGDIFSELKIL"
4,no binding,"KAZALD1 (Fc fusion, human, UniProt Q96I82 31-304, looked up, member of the group m19; HEK293T supernatant) fusion chain: RPSPGPDYLRRGWMRLLAEGEGCAPCRPEECAAPRGCLAGRVRDACGCCWECANLEGQLCDLDPSAHFYGHCGEQLECRLDTGGDLSRGEVPEPLCACRSQSPLCGSDGHTYSQICRLQEAARARPDANLTVAHPGPCESGPQIVSHPYDTWNVTGQDVIFGCEVFAYPMASIEWRKDGLDIQLPGDDPHISVQFRGGPQRFEVTGWLQIQAVRPSDEGTYRCLGRNALGQVEAPASLTVLTPDQLNSTGIPQLRSLNLVPEEEAESEENDDYY"
5,no binding,"IGFBP2 (Fc fusion, human, UniProt P18065 36-325, looked up, member of the group m19; HEK293T supernatant) fusion chain: AEVLFRCPPCTPERLAACGPPPVAPPAAVAAVAGGARMPCAELVREPGCGCCSVCARLEGEACGVYTPRCGQGLRCYPHPGSELPLQALVMGEGTCEKRRDAEYGASPEQVADNGDDHSEGGLVENHVDSTMNMLGGGGSAGRKPLKSGMKELAVFREKVTEQHRQMGKGGKHHLGLEEPKKLRPPPARTPCQQELDQVLERISTMRLPDERGPLEHLYSLHIPNCDKHGLYNLKQCKMSLNGQRGECWCVNPNTGKLIQGAPTIRGDPECHLFYNEQQEARGVHTQRMQ"
6,no binding,"NOV (Fc fusion, not shown: a dimerising Fc or GST; small tags and cut ends, member of the group m19; HEK293T supernatant) TQRCPPQCPGRCPATPPTCAPGVRAVLDGCSCCLVCARQRGESCSDLEPCDESSGLYCDRSADPSNQTGICTAVEGDNCVFDGVIYRSGEKFQPSCKFQCTCRDGQIGCVPRCQLDVLLPEPNCPAPRKVEVPGECCEKWICGPDEEDSLGGLTLAAYRPEATLGVEVSDSSVNCIEQTTEWTACSKSCGMGFSTRVTNRNRQCEMLKQTRLCMVRPCEQEPEQPTDKKGKKCLRTKKSLKAIHLQFKNCTSLHTYKPRFCGVCSDGRCCTPHNTKTIQAEFQCSPGQIVKKPVMVIGTCTCHTNCPKNNEAFLQELELKTTRGKM"
7,no binding,"CTGF (Fc fusion, human, UniProt P29279 27-349, looked up, member of the group m19; HEK293T supernatant) fusion chain: QNCSGPCRCPDEPAPRCPAGVSLVLDGCGCCRVCAKQLGELCTERDPCDPHKGLFCHFGSPANRKIGVCTAKDGAPCIFGGTVYRSGESFQSSCKYQCTCLDGAVGCMPLCSMDVRLPSPDCPFPRRVKLPGKCCEEWVCDEPKDQTVVGPALAAYRLEDTFGPDPTMIRANCLVQTTEWSACSKTCGMGISTRVTNDNASCRLEKQSRLCMVRPCEADLEENIKKGKKCIRTPKISKPIKFELSGCTSMKTYRAKFCGVCTDGRCCTPHRTTTLPVEFKCPDGEVMKKNMMFIKTCACHYNCPGDNDIFESLYYRKMYGDMA"
8,no binding,"IGFBP4 (Fc fusion, human, UniProt P22692 22-258, looked up, member of the group m19; HEK293T supernatant) fusion chain: DEAIHCPPCSEEKLARCRPPVGCEELVREPGCGCCATCALGLGMPCGVYTPRCGSGLRCYPPRGVEKPLHTLMHGQGVCMELAEIEAIQESLQPSDKDEGDHPNNSFSPCSAHDRRCLQKHFAKIRDRSTSGGKMKVNGAPREDARPVPQGSCQSELHRALERLAASQSRTHEDLYIIPIPNCDRNGNFHPKQCHPALDGQRGKCWCVDRKTGVKLPGGLEPKGELDCHQLADSFRE"
9,no binding,"IGFBP6 (Fc fusion, human, UniProt P24592 28-240, looked up, member of the group m19; HEK293T supernatant) fusion chain: RCPGCGQGVQAGCPGGCVEEEDGGSPAEGCAEAEGCLRREGQECGVYTPNCAPGLQCHPPKDDEAPLRALLLGRGRCLPARAPAVAEENPKESKPQAGTARPQDVNRRDQQRNPGTSTTPSQPNSAGVQDTEMGPCRRHLDSVLQQLQTEVYRGAQTLYVPNCDHRGFYRKRQCRSSQGQRRGPCWCVDRMGKSLPGSPDGNGSSSCPTGSSG"
10,no binding,"CYR61 (Fc fusion, human, UniProt O00622 25-381, looked up, member of the group m19; HEK293T supernatant) fusion chain: TCPAACHCPLEAPKCAPGVGLVRDGCGCCKVCAKQLNEDCSKTQPCDHTKGLECNFGASSTALKGICRAQSEGRPCEYNSRIYQNGESFQPNCKHQCTCIDGAVGCIPLCPQELSLPNLGCPNPRLVKVTGQCCEEWVCDEDSIKDPMEDQDGLLGKELGFDASEVELTRNNELIAVGKGSSLKRLPVFGMEPRILYNPLQGQKCIVQTTSWSQCSKTCGTGISTRVTNDNPECRLVKETRICEVRPCGQPVYSSLKKGKKCSKTKKSPEPVRFTYAGCLSVKKYRPKYCGSCVDGRCCTPQLTRTVKMRFRCEDGETFSKNVMMIQSCKCNYNCPHANEAAFPFYRLFNDIHKFRD"
11,no binding,"IGFBP1 (Fc fusion, human, UniProt P08833 26-259, looked up, member of the group m19; HEK293T supernatant) fusion chain: APWQCAPCSAEKLALCPPVSASCSEVTRSAGCGCCPMCALPLGAACGVATARCARGLSCRALPGEQQPLHALTRGQGACVQESDASAPHAAEAGSPESPESTEITEEELLDNFHLMAPSEEDHSILWDAISTYDGSKALHVTNIKKWKEPCRIELYRVVESLAKAQETSGEEISKFYLPNCNKNGFYHSRQCETSMDGEAGLCWCVYPWNGKRIPGSPEIRGDPNCQIYFNVQN"

# Molecular target: T1, human CD93 on cells (CD93-transfected …)
# Test: flow cytometry, HEK293T supernatant on CD93 transfectant; binding index = MFI of CD93 transfectant / MFI of control
row,binding result,Binder
1,binds,"IGFBP7 fused to a C-terminal Ig (made in transfected HEK293T cells, used as supernatant) (Fc fusion, not shown: a dimerising Fc or GST; small tags and cut ends, also called Fc tagged fusion protein of IGFBP7) SSSDTCGPCEPASCPPLPPLGCLLGETRDACGCCPMCARGEGEPCGGGGAGRGYCAPGMECVKSRKRRKGKAGAAAGGPGVSGVCVCKSRYPVCGSDGTTYPSGCQLRAASQRAESRGEKAITQVSKGTCEQGPSIVTPPKDIWNVTGAQVYLSCEVIGIPTPVLIWNKVKRGHYGVQRTELLPGDRDNLAIQTRGGPEKHEVTGWVLVSPLSKEDAGEYECHASNSQGQASASAKITVVDALHEIPVKKGEGAEL"

# Molecular target: T1, human CD93 on cells (CD93-transfected …)
# Test: flow cytometry, IGFBP7-Ig on CD93-transduced or control HEK293T cells
row,binding result,Binder
1,binds,"Human IGFBP7 (Fc-tag), Sino Biological (Fc fusion, Bought; also called IGFBP7-Ig; recombinant IGFBP7 protein; not shown: Fc tag of the bought fusion protein) SSSDTCGPCEPASCPPLPPLGCLLGETRDACGCCPMCARGEGEPCGGGGAGRGYCAPGMECVKSRKRRKGKAGAAAGGPGVSGVCVCKSRYPVCGSDGTTYPSGCQLRAASQRAESRGEKAITQVSKGTCEQGPSIVTPPKDIWNVTGAQVYLSCEVIGIPTPVLIWNKVKRGHYGVQRTELLPGDRDNLAIQTRGGPEKHEVTGWVLVSPLSKEDAGEYECHASNSQGQASASAKITVVDALHEIPVKKGEGAEL"
